Biological target: Flag-tagged MxA wildtype (human myxovirus resistance protein A) (human) (UniProt P20591)

SiAr126 nucleoprotein (NP), wildtype, from expression plasmid (natural protein)
SiAr126 polymerase reconstitution (minigenome firefly luciferase) in 293T cells: inhibition by co-expressed MxA compared with the inactive MxA(T103A): 90%

From paper PMC7704052
